# Measurements published in patent US20200095590A1, “TRANSCRIPTION SYSTEM” (AUTOLUS LIMITED, priority 2016, published 2020).
# Tests used:
# T cells = assay: Phenotype assay: memory markers by flow cytometry on CAR-TF T cells after co-culture with CD19 positive SKOV3 target cells; format: cell-based; conditions: for proportion of naive and central memory cells (CM): co-expressed with anti-CD19 CAR (HD37), day 0 (post-transduction) and day 7 (6 days after 24 hour co-culture), CD4+ and CD8+ subpopulations; for CD62L expression / CD27 expression: co-expressed with CAR (HD37)
# From the text: A bicistronic construct was expressed in BW5 T cells as a single transcript which self-cleaves at the 2A site to yield a chimeric antigen receptor (CAR); and a transcription factor (TF). Control constructs were also generated which lack the 2A site and the transcription factor (“CAR-only”) or lack the CAR and 2A site (“TF-only”).
# The CAR was an anti-CD19 CAR comprising an endodomain derived from CD3 zeta and from the co-stimulatory receptor 41BB.
# T cells expressing the various CAR-TF combinations, together with the relevant CAR-only and TF-only controls were co-cultured with CD19 positive SKOV3 target cells for 24 hours before recovering and culturing the T cells until day 7. The expression of the following memory markers was analysed by flow cytometry at day 0 of the co-culture and day 7, to see whether cells expressing factors that bias them towards central memory are more nave post-transduction and remain more nave upon stimulation with antigen-bearing target cells.
# Memory Markers—CCR7, CD45RA, CD62L, CD27
# The cells were gated on CAR-expression (via RQR8 transduction marker) and various T cell and T-cell subset markers (CD3 and CD8) depending on the sub-population of interest.
# streptavidin = streptavidin (Streptomyces avidinii, UniProt P22629); conditions: biotin mimicking peptide binding streptavidin; read-out: affinity; cited from earlier work
# [1] = 6 days after a 24 hour co-culture with target cells, CD4+ and CD8+ T cells
# streptavidin, sequence (P22629 25-183): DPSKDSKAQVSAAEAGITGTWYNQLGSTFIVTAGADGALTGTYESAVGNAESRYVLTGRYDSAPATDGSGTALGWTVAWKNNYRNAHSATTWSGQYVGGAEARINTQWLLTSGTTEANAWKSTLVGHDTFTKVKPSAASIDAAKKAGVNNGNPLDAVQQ
Molecule,proportion of naive and central memory cells (CM) (T cells),Kd (streptavidin),further results
"BACH2 S520A: mutant Bach2 with S to A substitution at position 520 (SEQ ID No. 9), co-expressed with anti-CD19 CAR",increase in the proportion of nave and central memory cells (CM),–,–
"BACH2: Bach2 wild type transcription factor (SEQ ID No. 8), co-expressed with anti-CD19 CAR in T cells",increase in the proportion of nave and central memory cells (CM),–,–
"Runx3 and CBFbeta: transcription factors Runx3 (SEQ ID No. 13) and CBF beta (SEQ ID No. 22), co-expressed with anti-CD19 CAR in T cells",–,–,CD62L expression (T cells; after transduction (day 0) and 6 days after the 24 hour co-culture): upregulation of CD62L
biotin mimicking peptide CHPQGPPC (SEQ ID NO: 31) [ccstreptag],–,230 nM,–
"biotin mimicking peptide DVEAWLDERVPLVET (SEQ ID NO: 26) (Biotin mimicking peptide, long nanotag)",–,3.6 nM,–
"biotin mimicking peptide DVEAWLGAR (SEQ ID NO: 27) (Biotin mimicking peptide, short nanotag)",–,17 nM,–
biotin mimicking peptide WSHPQFEK (SEQ ID NO: 29) [streptagII],–,72000 nM,–
"FOXO1: Forkhead box protein O1 transcription factor (SEQ ID No. 12), co-expressed with anti-CD19 CAR in T cells (protein, listed as Homo sapiens) MAEAPQVVEIDPDFEPLPRPRSCTWPLPRPEFSQSNSATSSPAPSGSAAANPDAAAGLPSASAAAVSADFMSNLSLLEESEDFPQAPGSVAAAVAAAAAAAATGGLCGDFQGPEAGCLHPAPPQPPPPGPLSQHPPVPPAAAGPLAGQPRKSSSSRRNAWGNLSYADLITKAIESSAEKRLTLSQIYEWMVKSVPYFKDKGDSNSSAGWKNSIRHNLSLHSKFIRVQNEGTGKSSWWMLNPEGGKSGKSPRRRAASMDNNSKFAKSRSRAAKKKASLQSGQEGAGDSPGSQFSKWPASPGSHSNDDFDNWSTFRPRTSSNASTISGRLSPIMTEQDDLGEGDVHSMVYPPSAAKMASTLPSLSEISNPENMENLLDNLNLLSSPTSLTVSTQSSPGTMMQQTPCYSFAPPNTSLNSPSPNYQKYTYGQSSMSPLPQMPIQTLQDNKSSYGGMSQYNCAPGLLKELLTSDSPPHNDIMTPVDPGVAQPNSRVLGQNVMMGPNSVMSTYGSQASHNKMMNPSSHTHPGHAQQTSAVNGRPLPHTVSTMPHTSGMNRLTQVKTPVQVPLPHPMQMSALGGYSSVSSCNGYGRMGLLHQEKLPSDLDGMFIERLDCDMESIIRNDLMDGDTLDFNFDNVLPNQSFPHSVKTTTHSWVSG",greater proportion of nave and central memory cells (CM),–,"CD27 expression (T cells; [1]): upregulation of CD27, especially on CD8+ cells; CD62L expression (T cells; [1]): significant upregulation of CD62L"
"EOMES: Eomesodermin transcription factor (SEQ ID No. 11), co-expressed with anti-CD19 CAR in T cells (protein, UniProt O95936 1-686, looked up, co-expressed with anti-CD19 CAR) Eomesodermin homolog: MQLGEQLLVSSVNLPGAHFYPLESARGGSGGSAGHLPSAAPSPQKLDLDKASKKFSGSLSCEAVSGEPAAASAGAPAAMLSDTDAGDAFASAAAVAKPGPPDGRKGSPCGEEELPSAAAAAAAAAAAAAATARYSMDSLSSERYYLQSPGPQGSELAAPCSLFPYQAAAGAPHGPVYPAPNGARYPYGSMLPPGGFPAAVCPPGRAQFGPGAGAGSGAGGSSGGGGGPGTYQYSQGAPLYGPYPGAAAAGSCGGLGGLGVPGSGFRAHVYLCNRPLWLKFHRHQTEMIITKQGRRMFPFLSFNINGLNPTAHYNVFVEVVLADPNHWRFQGGKWVTCGKADNNMQGNKMYVHPESPNTGSHWMRQEISFGKLKLTNNKGANNNNTQMIVLQSLHKYQPRLHIVEVTEDGVEDLNEPSKTQTFTFSETQFIAVTAYQNTDITQLKIDHNPFAKGFRDNYDSSHQIVPGGRYGVQSFFPEPFVNTLPQARYYNGERTVPQTNGLLSPQQSEEVANPPQRWLVTPVQQPGTNKLDISSYESEYTSSTLLPYGIKSLPLQTSHALGYYPDPTFPAMAGWGGRGSYQRKMAAGLPWTSRTSPTVFSEDQLSKEKVKEEIGSSWIETPPSIKSLDSNDSGVYTSACKRRRLSPSNSSNENSPSIKCEDINAEEYSKDTSKGMGGYYAFYTTP",–,–,CD27 expression (T cells; [1]): significant upregulation of CD27; CD62L expression (T cells; [1]): do not show significant up-regulation of CD62L
